In the supplement of paper PMC10567573:

Assay: protein stability index of a GFP-peptide fusion (GPS, HEK-293T) (PSI 1-6); higher = more stable
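Note: lentivirally expressed fusions sorted by FACS into six bins by GFP to DsRed ratio, PSI derived from sequencing read proportions per bin multiplied by bin number.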

## CSECGESFSRSSRLMSHQRTHTG
parent: IOH6312_114, c terminus: native
  protein stability index: 2.98

## LARRRRRRQARREAEADKPRRLGR
parent: IOH6410_65, c terminus: a fixed tail appended
  protein stability index: 4.75

## ALLHQAETLQPSVWFGGREHVLMF
parent: IOH5167_67, c terminus: a fixed tail appended
  protein stability index: 2.09

## KKFRTKSRTWAGEKSKREMYSRLK
parent: IOH5852_84, c terminus: a fixed tail appended
  protein stability index: 2.82

## FMEKRNQWLVSQLSAASPDTGHDS
parent: IOH5394_23, c terminus: a fixed tail appended
  protein stability index: 2.4

## TVAGKHQDLKYISPEIMASVLNGK
parent: IOH5852_59, c terminus: a fixed tail appended
  protein stability index: 3.04

## SNFHINVEESVDGQVVSSHKREI
parent: IOH5303_75, c terminus: native
  protein stability index: 2.11

## REESLPNLLQYVRMPLLTPRYITD
parent: IOH6063_36, c terminus: a fixed tail appended
  protein stability index: 2.48

## YPCVLATEGFTSGRHYWEVEVGDK
parent: IOH5913_59, c terminus: a fixed tail appended
  protein stability index: 1.8

## KPYKCTLCGENFSHRSNLIRHQRI
parent: IOH6312_101, c terminus: a fixed tail appended
  protein stability index: 2.32

## HLTRHQRTHTGEKPYKCTLCGENF
parent: IOH6312_99, c terminus: a fixed tail appended
  protein stability index: 2.9

## FGGGSTRGGSLLAGGGGFGGGSLS
parent: IOH5303_3, c terminus: a fixed tail appended
  protein stability index: 1.81

## QPKKLHLCPLCGKNFSNNSNLIRH
parent: IOH6312_63, c terminus: a fixed tail appended
  protein stability index: 2.55

## YGHDYPRAAYQQVIQPALPGQPLP
parent: IOH5394_47, c terminus: a fixed tail appended
  protein stability index: 1.96

## KQGSMNFRFIPVLFPNAKKEHVPT
parent: IOH5394_84, c terminus: a fixed tail appended
  protein stability index: 1.99

## QLIDPDENKENEAFEFKKPVRPVS
parent: IOH5852_23, c terminus: a fixed tail appended
  protein stability index: 3.49

## FCYCAGSHKRKRSSGSFCYCHPDS
parent: IOH5876_8, c terminus: a fixed tail appended
  protein stability index: 1.91

## PGQPLPGASVRGLHPVQKVILNYP
parent: IOH5394_50, c terminus: a fixed tail appended
  protein stability index: 3.05

## RETASLKLLPHQPRIVEMKKGSNG
parent: IOH5807_39, c terminus: a fixed tail appended
  protein stability index: 3.37

## RTHTGEKPYKCTLCGENFSHRSNL
parent: IOH6312_100, c terminus: a fixed tail appended
  protein stability index: 2.17

## PEASHLRFRRFRFQEAAGPREALS
parent: IOH6312_7, c terminus: a fixed tail appended
  protein stability index: 2.65

## FVKILKDFPEEDDPTNWLRCYYYE
parent: IOH5398_38, c terminus: a fixed tail appended
  protein stability index: 2.09

## LLRHQRIHTGERPYKCPECGKSFS
parent: IOH6312_85, c terminus: a fixed tail appended
  protein stability index: 2.03

## VPGTQVGQGGKLWDPSVQSCKEGL
parent: IOH6312_45, c terminus: a fixed tail appended
  protein stability index: 4.2

## FGGNPRFLSLHRAHLGEEAHKCLE
parent: IOH6312_70, c terminus: a fixed tail appended
  protein stability index: 1.85

## LDYTADEDGVWYSVAPMNVRRGLA
parent: IOH6063_59, c terminus: a fixed tail appended
  protein stability index: 1.98

## FGPDSKSSALACTLPTLPAKVYVG
parent: IOH5398_13, c terminus: a fixed tail appended
  protein stability index: 2.21

## FAHSSNLLRHQRIHTGERPYKCPE
parent: IOH6312_84, c terminus: a fixed tail appended
  protein stability index: 2.34

## KEHVPTWLQNTHVYSWPKNKKNIL
parent: IOH5394_87, c terminus: a fixed tail appended
  protein stability index: 2.59

## KIANLGSCNDSKLEFRSFWELIGE [S100A14 WT]
parent: IOH5597_12, c terminus: a fixed tail appended
  protein stability index: 2.01

## CKACITRWWEDLERDFPCPVCRKT
parent: IOH5913_9, c terminus: a fixed tail appended
  protein stability index: 3.85

## SCTIIFLASIFQLAMWTTALLHQA
parent: IOH5167_64, c terminus: a fixed tail appended
  protein stability index: 2.71

## PRPPSNPPARGTLKTSNLPEELRK
parent: IOH5394_64, c terminus: a fixed tail appended
  protein stability index: 4.55

## APWNYHYHCPGSPDHQVPYGHDYP
parent: IOH5394_44, c terminus: a fixed tail appended
  protein stability index: 1.94

## FQRRNMIEPRERAKFKRKYKVKLV
parent: IOH6410_75, c terminus: a fixed tail appended
  protein stability index: 2.25

## SVICRSLPEGMGPGESGQPPPAC [ALKBH7 WT]
parent: IOH5568_34, c terminus: native
  protein stability index: 1.99

## EKPYKCPECGEIFAHSSNLLRHQR
parent: IOH6312_82, c terminus: a fixed tail appended
  protein stability index: 2.43

## SMTTPRCYVGATVLRGRLYAIAGY
parent: IOH6063_85, c terminus: a fixed tail appended
  protein stability index: 2.41

## KPIVPTDGKRVIVVFHCEFSSERG
parent: IOH5852_70, c terminus: a fixed tail appended
  protein stability index: 2.59

## FQAKKIPIVSSLADPLDTPPDSKE
parent: IOH5807_78, c terminus: a fixed tail appended
  protein stability index: 3.78

## QRTHTGEKPYKCPECGEIFAHSSN
parent: IOH6312_81, c terminus: a fixed tail appended
  protein stability index: 3.1

## QTSAFARQPRDELERVRVSCTIIF
parent: IOH5167_61, c terminus: a fixed tail appended
  protein stability index: 2.28

## YNPSFEDHQTLLSAAHEVELQRQK
parent: IOH6410_42, c terminus: a fixed tail appended
  protein stability index: 3.61

## QSLDQEILLKVKTEIEEELKSLDK
parent: IOH5956_9, c terminus: a fixed tail appended
  protein stability index: 4.89

## VVTSAREHIYDLRSLENYHFVDEH [CLINT1 WT]
parent: IOH5634_17, c terminus: a fixed tail appended
  protein stability index: 2.76

## RPDTGDDAAGHGFCYCAGSHKRKR
parent: IOH5876_6, c terminus: a fixed tail appended
  protein stability index: 2.92

## MASSSTVPLGFHYETKYVVLSYLG
parent: IOH5956_1, c terminus: a fixed tail appended
  protein stability index: 2.43

## MNLHVYISEHEHFTDFNATSALFW
parent: IOH5653_18, c terminus: a fixed tail appended
  protein stability index: 2.74

## DPQSGELPSERWNPTQNVRTILLS [UBE2R2 WT]
parent: IOH5652_18, c terminus: a fixed tail appended
  protein stability index: 3.45

## ERDFPCPVCRKTSRYRSLRPNRQL
parent: IOH5913_11, c terminus: a fixed tail appended
  protein stability index: 2.25

## YIIQQGGWGTVFSLESEEEEYPGI
parent: IOH5956_33, c terminus: a fixed tail appended
  protein stability index: 1.93

## YPHCTGISQQDPESDSQGQGNGLF [FAM164C WT]
parent: IOH5453_15, c terminus: a fixed tail appended
  protein stability index: 3.84

## LGCYAVYSLLYLEHKGWYSWVLSM
parent: IOH5653_82, c terminus: a fixed tail appended
  protein stability index: 2.95
